Assay results from patent US20200268855.

Target: T1, ALDH1A2-His6 (UniProt O94788)
T1 sequence: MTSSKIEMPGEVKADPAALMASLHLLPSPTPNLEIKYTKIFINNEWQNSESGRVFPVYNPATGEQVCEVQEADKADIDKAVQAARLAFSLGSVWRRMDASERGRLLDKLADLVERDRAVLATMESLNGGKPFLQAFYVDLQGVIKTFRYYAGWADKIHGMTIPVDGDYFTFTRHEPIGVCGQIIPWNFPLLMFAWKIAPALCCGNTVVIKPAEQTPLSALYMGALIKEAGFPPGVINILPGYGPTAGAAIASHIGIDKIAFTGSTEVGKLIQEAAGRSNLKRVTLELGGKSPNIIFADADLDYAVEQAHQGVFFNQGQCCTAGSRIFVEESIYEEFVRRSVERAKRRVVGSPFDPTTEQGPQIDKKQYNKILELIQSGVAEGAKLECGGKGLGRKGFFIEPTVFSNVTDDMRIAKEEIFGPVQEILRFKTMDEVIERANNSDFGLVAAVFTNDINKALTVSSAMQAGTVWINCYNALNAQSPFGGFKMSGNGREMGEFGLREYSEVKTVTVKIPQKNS

## human UBE3A protein
  ubiquitination of ALDH1A2 in the reconstituted bacterial ubiquitination system (immunoblot): the ALDH1A2 protein was highly ubiquitinated in the presence of UBE3A protein
